Data set [1] deals with osteocalcin_(17-49) proteolysis fragment (bovine). The data set can be described thus: native MS; ESI-IMS-MS of the limited proteolysis mixture of full length calcium-bound holo-osteocalcin at neutral pH (enzyme:substrate 1:300, ammonium acetate); dimer seen as 6+ ions in the drift time distribution of the 3+ ions.
Data set [2] deals with the molecule itself. The experiment in a line: native MS; ESI-IMS-MS (nanoESI, travelling wave ion mobility), pH 7, 20 mM ammonium acetate (methods) or 1:1 5 mM ammonium acetate: ammonium formate; protein alone and with Ca^2+, Cu^+ or Zn^2+ salt at protein:salt 1:10; dimer told apart from monomer by drift time and isotope pattern; dimer peak increased significantly with metal ions.

Bridge positions count the residues as written; N and C are the ends. Square brackets hold non-standard residues; d marks the D form. Ends that are not written are not given here. Gla = N[C@@H](CC(C(=O)O)C(=O)O)C(=O)O

With “osteocalcin_(17-49) proteolysis fragment (domain or fragment)”, in data set [1], the stoichiometry N was found to be 2.

B1: bovine osteocalcin (natural protein, UniProt P02820 52-100, looked up)
chain: YLDHWLGAPAPYPDPL[Gla]PKR[Gla]VC[Gla]LNPDCDELADHIGFQEAYRRFYGPV
modifications: disulfide 23-29
notes: also called apo-osteocalcin; apo-OST; source: purified from bovine bone tissue (EDTA extraction, size exclusion and ion exchange chromatography)
B1: the “stoichiometry N” value in data set [2] is 2.

The term stoichiometry N denotes a count of units in the complex or per binding partner.

The values above are taken from paper PMC3706957, “Ion Mobility Spectrometry-Mass Spectrometry of Intrinsically Unfolded Proteins: Trying to Put Order into Disorder” (Current Analytical Chemistry, 2013).
